From paper PMC10635575

Experiments:
[1] = N-glycosylation at N411
[2] = molecular target: CZA97.012 SOSIP.664 trimer (HIV-1, Clade C, clone CZA97.012 (97ZA.012)); experiment: cryo-EM structure
[3] = molecular target: CZA97.012 SOSIP.664 trimer (HIV-1, Clade C, clone CZA97.012 (97ZA.012)); experiment: negative-stain electron microscopy; trimer purified by 2G12-, PGT145- or PGT151-affinity chromatography and then SEC, ~0.02 mg/mL, 2% uranyl formate, 2D class averages
[4] = molecular target: CZA97.012 SOSIP.664 trimer (HIV-1, Clade C, clone CZA97.012 (97ZA.012))
[5] = molecular target: CZA97.012 SOSIP.664 trimer (HIV-1, Clade C, clone CZA97.012 (97ZA.012)); experiment: SPR
[6] = molecular target: CZA97.012 SOSIP.664 trimer, His-tagged, 2G12-affinity- and then SEC-purified (HIV-1 (Clade C, clone CZA97.012)); experiment: SPR
[7] = molecular target: CZA97.012 SOSIP.664 trimer (HIV-1, Clade C, clone CZA97.012 (97ZA.012)); remark: listed apart in the source

With “CZA97.012 Env, D411N mutant: D411N (PNGS knock-in) vs parental; neutralization by autologous rabbit sera 2082 and 2084” the other [1] was “decreases”.

With CZA97.012 SOSIP.664 trimer (complex) the stoichiometry N [2] was 3 and the stoichiometry N [3] was 3.

Molecule 3BNC117 Fab has an IC50 of neutralization of CZA97.012 pseudovirus (Env on virions) by 3BNC117 IgG, TZM-bl assay [4] of 0.32 µg/mL, a stoichiometry N [5] of 2.8 and a Kd [6] of 15 nM. The koff [6] was 0.00014 s⁻¹, the kon [6] was 9700 M⁻¹ s⁻¹ and the stoichiometry N [6] was 2.7.

In the case of “CZA97.012 Env, D411N mutant: D411N (PNGS knock-in) vs parental; neutralization by bNAbs”, the other [1] is reported as “no change”.

For “CZA97.012 Env, D411N mutant: D411N (PNGS knock-in) vs parental; neutralization by autologous rabbit serum 2086”, the other [1] was “decreases”.

B1: PGT145 (antibody, V domains shown)
VH: QVQLVQSGAEVKKPGSSVKVSCKASGNSFSNHDVHWVRQATGQGLEWMGWMSHEGDKTGLAQKFQGRVTITRDSGASTVYMELRGLTADDTAIYYCLTGSKHRLRDYFLYNEYGPNYEEWGDYLATLDVWGHGTAVTVSS
VL: EVVITQSPLFLPVTPGEAASLSCKCSHSLQHSTGANYLAWYLQRPGQTPRLLIHLATHRASGVPDRFSGSGSGTDFTLKISRVESDDVGTYYCMQGLHSPWTFGQGTKVEIK
B1 showed an IC50 of neutralization of CZA97.012 pseudovirus (Env on virions) by PGT145 IgG, TZM-bl assay [7] of 7.6 µg/mL.
